# B1: recombinant human lactoferrin (protein, UniProt P02788 20-710, looked up)
# Lactotransferrin: GRRRSVQWCAVSQPEATKCFQWQRNMRKVRGPPVSCIKRDSPIQCIQAIAENRADAVTLDGGFIYEAGLAPYKLRPVAAEVYGTERQPRTHYYAVAVVKKGGSFQLNELQGLKSCHTGLRRTAGWNVPIGTLRPFLNWTGPPEPIEAAVARFFSASCVPGADKGQFPNLCRLCAGTGENKCAFSSQEPYFSYSGAFKCLRDGAGDVAFIRESTVFEDLSDEAERDEYELLCPDNTRKPVDKFKDCHLARVPSHAVVARSVNGKEDAIWNLLRQAQEKFGKDKSPKFQLFGSPSGQKDLLFKDSAIGFSRVPPRIDSGLYLGSGYFTAIQNLRKSEEEVAARRARVVWCAVGEQELRKCNQWSGLSEGSVTCSSASTTEDCIALVLKGEADAMSLDGGYVYTAGKCGLVPVLAENYKSQQSSDPDPNCVDRPVEGYLAVAVVRRSDTSLTWNSVKGKKSCHTAVDRTAGWNIPMGLLFNQTGSCKFDEYFSQSCAPGSDPRSNLCALCIGDEQGENKCVPNSNERYYGYTGAFRCLAENAGDVAFVKDVTVLQNTDGNNNEAWAKDLKLADFALLCLDGKRKPVTEARSCHLAMAPNHAVVSRMDKVERLKQVLLHQQAKFGRNGSDCPDKFCLFQSETKNLLFNDNTECLARLHGKTTYEKYLGPQYVAGITNLKKCSTSPLLEACEFLRK
# Legend:
# [1] = tested on: radiant heat-induced tail-flick response in mice; assay: Tail flick test, radiant heat-induced pain in mice; type: in vivo
# Experimental: The tail flick test measures the time (max 15 s) required to elicit a radiant heat-induced tail-flick response in mice. Mice received 1000 mg/kg rhLF or placebo orally 60 minutes prior to test (N=5 per group).
# [2] = tested on: phenylquinone-induced writhes in mice; assay: Phenylquinone (PQ)-induced writhing test in mice; type: in vivo
# Experimental: The PQ test measures the number of writhes seen during a 5-10 minute period following IP injection of phenylquinone in mice (2 mg/kg) (N=3). Mice received 1000 mg/kg rhLF or placebo orally 60 minutes prior to test (N=5 per group).
molecule,measurement,setting,value
B1,reduction in pain as measured by number of tail flicks observed,"[1]; 1000 mg/kg orally 60 minutes prior to test, vs placebo (FIG. 1)",statistically significant reduction in pain
same,difference in tail flick response between placebo and treated groups at time zero,"[1]; 1000 mg/kg orally, time zero (FIG. 1)",No difference in response
same,reduction in pain as measured by number of writhes observed,"[2]; 1000 mg/kg orally 60 minutes prior to test, IP phenylquinone 2 mg/kg, writhes during 5-10 minute period, vs placebo (FIG. 2)",reduction in pain
same,difference in writhing response between placebo and treated groups at time zero,"[2]; 1000 mg/kg orally, time zero (FIG. 2)",No difference in response

# — patent US7638487B2, “Lactoferrin in the reduction of pain” (Agennix, Inc., priority 2002, dated 2009)
